Results taken from patent US11015206B2, “Compositions and methods comprising sequences having hydroxyphenylpyruvate dioxygenase (HPPD) activity” (PIONEER HI-BRED INTERNATIONAL, INC., priority 2014, dated 2021).

Experiments:
Format in all cases: biochemical, Z. mays
[1] = tested on: 4-hydroxyphenylpyruvate dioxygenase (HPPD); experiment: OFF rate ratio: release of inhibitor from pre-formed enzyme-inhibitor complex; details: Table 5; tembotrione
Outline: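 HPPD (7.2 μM) pre-incubated 1 h at RT with inhibitor (8 μM), then diluted into 25 mM Hepes pH 7, 2 mM ascorbate, 10 μM FeSO4, 100 μM HPP, 50 nM HGD; A320 followed 12 min. Ratio = steady-state rate with inhibitor over initial rate of inhibitor-free enzyme.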

[2] = tested on: 4-hydroxyphenylpyruvate dioxygenase (HPPD); experiment: HPPD activity coupled assay with HGD; substrate saturation kinetic parameters (kcat, KM); details: Table 6; for kcat: single substitutions in SEQ ID NO:2
Outline: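 Coupled continuous assay: His-tagged HPPD (5 to 240 nM, E. coli-expressed, Ni-NTA-purified) with 50 nM P. aeruginosa HGD in 25 mM Hepes pH 7, 2 mM ascorbate, 10 μM FeSO4; maleylacetoacetate followed at 320 nm. KM and Vmax from Lineweaver-Burke fits over 3.33–100 μM HPP.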

[3] = tested on: 4-hydroxyphenylpyruvate dioxygenase (HPPD); experiment: Insensitivity parameter (ON × OFF) and trait fitness (ON × OFF × kcat/KM or × kcat); details: for ON × OFF × kcat, Value / ON × OFF × kcat, Fold vs wt / ON × OFF, fold vs wt / ON × OFF (parameters with tembotrione): Table 5, tembotrione; for ON × OFF × kcat, Fold vs wt / ON × OFF, fold vs wt: fold vs maize wild type HPPD; for ON × OFF (parameters with tembotrione): insensitivity parameter
Outline: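 Calculated, not measured directly: ON rate ratio × OFF rate ratio gives an insensitivity parameter serving as a KD surrogate.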

[4] = tested on: 4-hydroxyphenylpyruvate dioxygenase (HPPD); experiment: ON rate ratio: HPPD reaction rate with vs without inhibitor in the 70 to 90 second interval; details: Table 5; tembotrione
Outline: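 Time courses of HPPD reactions, 60 or 120 nM enzyme with 100 μM HPP substrate, run with and without 4 μM inhibitor (e.g. mesotrione, tembotrione). Value is the rate with inhibitor over rate without, taken over 70–90 s; higher ratio reflects slower kON.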

[5] = tested on: 4-hydroxyphenylpyruvate dioxygenase (HPPD); experiment: Estimate of kcat from initial rate at saturating hydroxyphenylpyruvate without inhibitor (ON rate ratio assay); details: Table 5; single substitutions in Round 7 variant 9070 (SEQ ID NO:2); estimate from initial rate at saturating hydroxyphenylpyruvate without inhibitor
Outline: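 Reactions used 60 or 120 nM HPPD and saturating 100 μM hydroxyphenylpyruvate without inhibitor. kcat was estimated from the initial rate at the known enzyme concentration.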

[6] = DKN (diketonitrile form of isoxaflutole)
[7] = DKN (isoxaflutole diketonitrile)

Molecule	OFF ratio (parameters with tembotrione) [1]	Km [2] [µM]	kcat [2] [s⁻¹]	Insensitivity parameter, ON × OFF [3, 6]	ON × OFF × kcat/km fold vs Round 7, variant 9070 [3, 7]	Insensitivity parameter, ON × OFF ([3]; Mesotrione, Table 6)	ON × OFF × kcat/km fold vs Round 7, variant 9070 ([3]; Sulco (sulcotrione))	Insensitivity parameter, ON × OFF ([3]; Sulcotrione)	ON × OFF × kcat, Value [3]	ON × OFF × kcat, Fold vs wt [3]	ON × OFF, fold vs wt [3]	ON × OFF (parameters with tembotrione) [3]	Insensitivity parameter, ON × OFF ([3]; Tembotrione)	ON × OFF × kcat/km fold vs Round 7, variant 9070 ([3]; Topra (topramezone))	Insensitivity parameter, ON × OFF ([3]; Topramezon)	ON × OFF × kcat/km fold vs Round 7, variant 9070 ([3]; meso (mesotrione))	ON × OFF × kcat/km fold vs Round 7, variant 9070 ([3]; tembo (tembotrione))	ON ratio (parameters with tembotrione) [4]	kcat [5] [s⁻¹]
417Q: single substitution G417Q in SEQ ID NO:2 (protein, Zea mays variant form created by artificial means.) MGPTPTATAAGAAVAAASAAEQAAFRLVGHRNFVRFNPRSDRFQTLAFHHVELWCADAASAAGRFSFALGVPLAARSDLSTGNSAHASLLLRSGSLSLLFTAPYAHGADAATAALPSFSAAAARRFAADHGLAVRAVALRVADAEDAFRASVAAGARPAFGPVDLGRGFRLAEVELYGDVVLRYVSYPDGAAGEPFLPGFEGVASPGAADYGLSRFDHIVGNVPELAPAAAYMAGFTGFHEFAEFTTEDVGTTESGLNSMALANNSENVLLPLNEPVHGTKRRSQIQTFLDHHGGPGVQHIALASDDVLRTLREMRARSAMGGFEFLPPPLSDYYDGVRRCAGDVLTEAQINECQELGVMVDRDDQGVLLQIFTKPVGDRPTFFLEIIQRIGCMEKDEKGQEYQKGGCGGFGKGNFQQLFKSIEDYEKSLEAKQAAAAATAQGS	0.27	1.56	0.558	0.39	1.0	0.73	1.2	0.74	4.04	3.77	38.4	0.20	0.33	1.4	0.39	1.5	1.5	0.74	0.343
360L: single substitution 360L in SEQ ID NO:2 (protein, Zea mays variant form created by artificial means.) MGPTPTATAAGAAVAAASAAEQAAFRLVGHRNFVRFNPRSDRFQTLAFHHVELWCADAASAAGRFSFALGVPLAARSDLSTGNSAHASLLLRSGSLSLLFTAPYAHGADAATAALPSFSAAAARRFAADHGLAVRAVALRVADAEDAFRASVAAGARPAFGPVDLGRGFRLAEVELYGDVVLRYVSYPDGAAGEPFLPGFEGVASPGAADYGLSRFDHIVGNVPELAPAAAYMAGFTGFHEFAEFTTEDVGTTESGLNSMALANNSENVLLPLNEPVHGTKRRSQIQTFLDHHGGPGVQHIALASDDVLRTLREMRARSAMGGFEFLPPPLSDYYDGVRRCAGDVLTEAQINECQELGVLVDRDDQGVLLQIFTKPVGDRPTFFLEIIQRIGCMEKDEKGQEYQKGGCGGFGKGNFGQLFKSIEDYEKSLEAKQAAAAATAQGS	0.22	1.71	0.543	0.34		0.51		0.63	4.41	4.12	32.6	0.17	0.25		0.32			0.77	0.442
376W: single substitution 376W in SEQ ID NO:2 (protein, Zea mays variant form created by artificial means.) MGPTPTATAAGAAVAAASAAEQAAFRLVGHRNFVRFNPRSDRFQTLAFHHVELWCADAASAAGRFSFALGVPLAARSDLSTGNSAHASLLLRSGSLSLLFTAPYAHGADAATAALPSFSAAAARRFAADHGLAVRAVALRVADAEDAFRASVAAGARPAFGPVDLGRGFRLAEVELYGDVVLRYVSYPDGAAGEPFLPGFEGVASPGAADYGLSRFDHIVGNVPELAPAAAYMAGFTGFHEFAEFTTEDVGTTESGLNSMALANNSENVLLPLNEPVHGTKRRSQIQTFLDHHGGPGVQHIALASDDVLRTLREMRARSAMGGFEFLPPPLSDYYDGVRRCAGDVLTEAQINECQELGVMVDRDDQGVLLQIFTKWVGDRPTFFLEIIQRIGCMEKDEKGQEYQKGGCGGFGKGNFGQLFKSIEDYEKSLEAKQAAAAATAQGS	0.34	5.51	0.602	0.37		0.39		0.16	5.42	5.07	46.0	0.23	0.31		0.32			0.68	0.385
390N: single substitution 390N in SEQ ID NO:2 (protein, Zea mays variant form created by artificial means.) MGPTPTATAAGAAVAAASAAEQAAFRLVGHRNFVRFNPRSDRFQTLAFHHVELWCADAASAAGRFSFALGVPLAARSDLSTGNSAHASLLLRSGSLSLLFTAPYAHGADAATAALPSFSAAAARRFAADHGLAVRAVALRVADAEDAFRASVAAGARPAFGPVDLGRGFRLAEVELYGDVVLRYVSYPDGAAGEPFLPGFEGVASPGAADYGLSRFDHIVGNVPELAPAAAYMAGFTGFHEFAEFTTEDVGTTESGLNSMALANNSENVLLPLNEPVHGTKRRSQIQTFLDHHGGPGVQHIALASDDVLRTLREMRARSAMGGFEFLPPPLSDYYDGVRRCAGDVLTEAQINECQELGVMVDRDDQGVLLQIFTKPVGDRPTFFLEIIQNIGCMEKDEKGQEYQKGGCGGFGKGNFGQLFKSIEDYEKSLEAKQAAAAATAQGS	0.22	2.86	0.837	0.29		0.45		0.58	5.00	4.67	32.4	0.17	0.20		0.27			0.75	0.505
385V: single substitution L385V in SEQ ID NO:2 (protein, Zea mays variant form created by artificial means.) MGPTPTATAAGAAVAAASAAEQAAFRLVGHRNFVRFNPRSDRFQTLAFHHVELWCADAASAAGRFSFALGVPLAARSDLSTGNSAHASLLLRSGSLSLLFTAPYAHGADAATAALPSFSAAAARRFAADHGLAVRAVALRVADAEDAFRASVAAGARPAFGPVDLGRGFRLAEVELYGDVVLRYVSYPDGAAGEPFLPGFEGVASPGAADYGLSRFDHIVGNVPELAPAAAYMAGFTGFHEFAEFTTEDVGTTESGLNSMALANNSENVLLPLNEPVHGTKRRSQIQTFLDHHGGPGVQHIALASDDVLRTLREMRARSAMGGFEFLPPPLSDYYDGVRRCAGDVLTEAQINECQELGVMVDRDDQGVLLQIFTKPVGDRPTFFVEIIQRIGCMEKDEKGQEYQKGGCGGFGKGNFGQLFKSIEDYEKSLEAKQAAAAATAQGS	0.33	1.91	0.505	0.33	1.1	0.65	1.0	0.78	5.26	4.92	48.2	0.25	0.34	1.3	0.49	1.0	1.4	0.75	0.357
